Data reported in US20170030891A1, “BLOOD CONDITION ANALYSIS DEVICE, BLOOD CONDITION ANALYSIS SYSTEM, BLOOD CONDITION ANALYSIS METHOD, AND PROGRAM” (SONY CORPORATION, priority 2014, published 2017).

Tested on: fibrinolysis system of the blood
Assay: complex permittivity at 10 MHz of blood samples with fibrinolysis system promotor (tPA) and inhibitor (aprotinin)
Conditions: blood sample of tPA=8 and aprotinin=0, FIG. 9
Protocol: In addition, for example, in the case where the fibrinolysis system is evaluated, examples of coagulation factors to be evaluated include plasminogen and plasmin. In that case, as a drug to be added to the blood sample, an activator or inhibitor of plasminogen or plasmin is usable. FIG. 9 is a diagram showing time-dependent changes in the real part (∈′) of the complex permittivity at 10 MHz of blood samples having different fibrinolysis system promotor (tPA) and fibrinolysis system inhibitor (aprotinin) concentrations.
For the evaluation of the fibrinolysis-system blood, for example, a value obtained by dividing the amplitude after 30 minutes from the time B shown in FIGS. 2A-2B by the amplitude at the time B (LI30: the source of clot firmness after a predetermined period of time from the maximum firmness accompanying fibrinolysis) can be used as an evaluation parameter.

B1: tPA: fibrinolysis system promotor (protein, UniProt P00750 36-562, looked up)
Tissue-type plasminogen …: SYQVICRDEKTQMIYQQHQSWLRPVLRSNRVEYCWCNSGRAQCHSVPVKSCSEPRCFNGGTCQQALYFSDFVCQCPEGFAGKCCEIDTRATCYEDQGISYRGTWSTAESGAECTNWNSSALAQKPYSGRRPDAIRLGLGNHNYCRNPDRDSKPWCYVFKAGKYSSEFCSTPACSEGNSDCYFGNGSAYRGTHSLTESGASCLPWNSMILIGKVYTAQNPSAQALGLGKHNYCRNPDGDAKPWCHVLKNRRLTWEYCDVPSCSTCGLRQYSQPQFRIKGGLFADIASHPWQAAIFAKHRRSPGERFLCGGILISSCWILSAAHCFQERFPPHHLTVILGRTYRVVPGEEEQKFEVEKYIVHKEFDDDTYDNDIALLQLKSDSSRCAQESSVVRTVCLPPADLQLPDWTECELSGYGKHEALSPFYSERLKEAHVRLYPSSRCTSQHLLNRTVTDNMLCAGDTRSGGPQANLHDACQGDSGGPLVCLNDGRMTLVGIISWGLGCGQKDVPGVYTKVTNYLDWIRDNMRP
characteristics of time-dependent change of ∈′ at 10 MHz: exhibits similar characteristics to the blood of a patient with the fibrinolysis system promoted
